Experimental findings from US20110245153A1 are described below.

Assay [1] deals with staphylococcal enterotoxin B (SEB), Staphylococcus aureus superantigen peptide. Briefly: fusion: Aga2 (yeast display).
The target in assay [2] is toxic shock syndrome toxin-1 (TSST-1), Staphylococcus aureus superantigen peptide. Briefly: soluble, other.

EGIGYITK had a dissociation constant Kd in assay [1] of 5 nM.

Take wild type hVβ2.1: the dissociation constant (Kd) in assay [2] was determined as 2300 nM. In other words, the single-digit micromolar range.

By Kd is commonly meant the equilibrium constant for the complex coming apart. Higher therefore signals weaker binding.
